Data taken from patent US20030120051A1 (SUGEN, published 2003).

Molecular target: endogenous c-Src of rat GH3 cells (rat, UniProt Q9WUD9 2-536, limits assumed)
Assay: immunoprecipitation and immunoblotting of endogenous proteins in GH3 cells

B1: rat CASPR/p190 (receptor)
chain: WGYYGCNEELVGPLYARSLGASSYYGLFTTARFARLHGISGWSPRIGDPNPWLQIDLMKKHRIRAVATQGAFNSWDWVTRYMLLYGDRVDSWTPFYQQGHNATFFGNVNDSAVVRHDLHYHFTARYIRIVPLAWNPRGKIGLRLGIYGCPYTSNILYFDGDDAISYRFQRGASQSLWDVFAFSFKTEEKDGLLLHTEGSQGDYVTLELQGAHLLLHMSLGSSPIQPRPGHTTVSAGGVLNDLSWHYVRVDRYGREANLTLDGYVHRFVLNGDFERLNLENEIFIGGLVGAARKNLAYRHNFRGCIENVIYNRINIAEMAVQRHSRITFEGNVAFRCLDPVPHPINFGGPHNFVQVPGFPRRGRLAVSFRFRTWDLTGLLLFSRLGDGLGHVELMLSEGQVNVSIAQTGRKKLQFAAGYRLNDGFWHEVNFVAQENHAVISIDDVEGAEVRVSYPLLIRTGTSYFFGGCPKPASRWGCHSNQTAFHGCMELLKVDGQLVNLTLVEFRKLGYFAEVLFDTCGITDRCSPNMCEHDGRCYQSWDDFICYCELTGYKGVTCHEPLYKESCEAYRLSGKYSGNYTIDPDGSGPLKPFVVYCDIRENRAWTVVRHDRLWTTRVTGSSMDRPFLGAIQYWNASWEEVSALANASQHCEQWIEFSCYNSRLLNTAGGYPYSFWIGRNEEQHFYWGGSQPGIQRCACGLDQSCIDPALHCNCDADQPQWRTDKGLLTFVDHLPVTQVVIGDTNRSSSEAQFFLRPLRCYGDRNSWNTISFRTGAALRFPPIRANHSLDVSFYFRTSAPSGVFLENMGGPFCQWRRPYVRVELNTSRDVVFAFDIGNGDENLTVHSDDFEFNDDEWHLVRAEINVKQARLRVDHRPWVLRPMPLQTYIWLEYDQPLYVGSAELKRRPFVGCLRAMRLNGVTLNLEGRANASEGTFPNCTGHCTHPRFPCFHGGRCVERYSYYTCDCDLTAFDGPYCNHDIGGFFETGTWMRYNLQSALRSAAQEFSHMLSRPVPGYEPGYIPGYDTPGYVPGYHGPGYRLPDYPRPGRPVPGYRGPVYNVTGEEVSFSFSTSSAPAVLLYVSSFVRDYMAVLIKEDGTLQLRYQLGTSPYVYQLTTRPVTDGQPHSVNITRVYRNLFIQVDYFPLTEQKFSLLVDSQLDSPKALYLGRVMETGVIDPEIQRYNTPGFSGCLSGVRFNNVAPLKTHFRTPRPMTAELAEAMRVQGELSESNCGAMPRLVSEVPPELDPWYLPPDFPYYHDDGWIAILLGFLVAFLLLGLVGMLVLFYLQNHRYKGSYHTNEPKATHDSHPGGKAPLPPSGPAQAPAPTPAPTQVPTPAPAPASGPGPRDQNLPQILEESRSE
notes: Endogenous in GH3 cells and rat brain, or expressed from pCM190R in COS7 cells; read from membrane lysates; no cleavage site stated; also called Contactin ASsociated PRotein; 190 kDa protein
  binding result: no binding
